Laboratory results: paper doi:10.1101/2025.05.15.654344 (bioRxiv, 2025)

B1: D-dopachrome tautomerase (D-DT or MIF-2), wild type (natural protein, human, UniProt P30046 1-118, looked up)
chain: MPFLELDTNLPANRVPAGLEKRLCAAAASILGKPADRVNVTVRPGLAMALSGSTEPCAQLSISSIGVVGTAEDNRSHSAHFFEFLTKELALGQDRILIRFFPLESWQIGKIGTVMTFL
B2: MIF-2 C56S variant (natural protein, human, UniProt P30046 1-118, looked up)
chain: MPFLELDTNLPANRVPAGLEKRLCAAAASILGKPADRVNVTVRPGLAMALSGSTEPSAQLSISSIGVVGTAEDNRSHSAHFFEFLTKELALGQDRILIRFFPLESWQIGKIGTVMTFL
B3: C56S MIF-2 bound to Ebselen (Cys23 covalently modified) (natural protein, human, UniProt P30046 1-118, looked up)
chain: MPFLELDTNLPANRVPAGLEKRLCAAAASILGKPADRVNVTVRPGLAMALSGSTEPSAQLSISSIGVVGTAEDNRSHSAHFFEFLTKELALGQDRILIRFFPLESWQIGKIGTVMTFL
modifications: Cys23 covalently modified by Ebselen
B4: WT MIF-2 bound to Ebselen (Cys23 covalently modified) (natural protein, human, UniProt P30046 1-118, looked up)
chain: MPFLELDTNLPANRVPAGLEKRLCAAAASILGKPADRVNVTVRPGLAMALSGSTEPCAQLSISSIGVVGTAEDNRSHSAHFFEFLTKELALGQDRILIRFFPLESWQIGKIGTVMTFL
modifications: Cys23 covalently modified by Ebselen

Target: the molecule itself
Experiment: NMR spin relaxation

Stoichiometry N, 3:
B1
B2
B3
B4
